Assay results: PMC10397247
One block for each binder: values may come before it.

How the values were obtained:
O5 = molecular target: T1, O5; test: two-hybrid library CC0; details: mean of both orientations;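 note: natural log of median RNA to DNA barcode read ratio; higher means stronger binding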
T1 chain: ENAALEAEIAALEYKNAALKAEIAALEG

O6 = molecular target: T2, O6; test: two-hybrid library CC0; details: mean of both orientations;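 note: natural log of median RNA to DNA barcode read ratio; higher means stronger binding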
T2 chain: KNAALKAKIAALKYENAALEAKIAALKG

O8 = molecular target: T3, O8; test: two-hybrid library CC0; details: mean of both orientations;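 note: natural log of median RNA to DNA barcode read ratio; higher means stronger binding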
T3 chain: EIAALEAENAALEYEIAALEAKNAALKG

O4 = molecular target: T4, O4; test: two-hybrid library CC0; details: mean of both orientations;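 note: natural log of median RNA to DNA barcode read ratio; higher means stronger binding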
T4 chain: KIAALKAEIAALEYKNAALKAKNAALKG

O9 = molecular target: T5, O9; test: two-hybrid library CC0; details: mean of both orientations;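 note: natural log of median RNA to DNA barcode read ratio; higher means stronger binding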
T5 chain: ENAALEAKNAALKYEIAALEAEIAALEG

O7 = molecular target: T6, O7; test: two-hybrid library CC0; details: mean of both orientations;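 note: natural log of median RNA to DNA barcode read ratio; higher means stronger binding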
T6 chain: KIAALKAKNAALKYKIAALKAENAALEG

P9A-bH = molecular target: T7, P9A-bH; test: two-hybrid library CCNG1
T7 chain: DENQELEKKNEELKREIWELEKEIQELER

P8A-bH = molecular target: T8, P8A-bH; test: two-hybrid library CCNG1
T8 chain: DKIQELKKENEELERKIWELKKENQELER

APC4011-AA = molecular target: T9, APC4011-AA; test: two-hybrid library CCmax; details: mean of both orientations
T9 chain: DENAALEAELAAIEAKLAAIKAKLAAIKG

APC4436-AA = molecular target: T10, APC4436-AA; test: two-hybrid library CCmax; details: mean of both orientations
T10 chain: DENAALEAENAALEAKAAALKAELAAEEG

APC8191-AA = molecular target: T11, APC8191-AA; test: two-hybrid library CCmax; details: mean of both orientations
T11 chain: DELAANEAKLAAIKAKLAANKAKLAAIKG

APC4264-AA = molecular target: T12, APC4264-AA; test: two-hybrid library CCmax; details: mean of both orientations
T12 chain: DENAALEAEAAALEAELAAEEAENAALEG

APC2237-AA = molecular target: T13, APC2237-AA; test: two-hybrid library CCmax; details: mean of both orientations
T13 chain: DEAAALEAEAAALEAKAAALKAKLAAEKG

APC9319-AA = molecular target: T14, APC9319-AA; test: two-hybrid library CCmax; details: mean of both orientations
T14 chain: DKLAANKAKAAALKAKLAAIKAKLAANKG

APC1434-AA = molecular target: T15, APC1434-AA; test: two-hybrid library CCmax; details: mean of both orientations
T15 chain: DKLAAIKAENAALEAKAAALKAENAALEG

APC5383-AA = molecular target: T16, APC5383-AA; test: two-hybrid library CCmax; details: mean of both orientations
T16 chain: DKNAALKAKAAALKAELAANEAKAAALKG

APC8910-AA = molecular target: T17, APC8910-AA; test: two-hybrid library CCmax; details: mean of both orientations
T17 chain: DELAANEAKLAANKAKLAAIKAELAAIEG

APC3645-AA = molecular target: T18, APC3645-AA; test: two-hybrid library CCmax; details: mean of both orientations
T18 chain: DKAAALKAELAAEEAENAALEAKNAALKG

APC232-AA = molecular target: T19, APC232-AA; test: two-hybrid library CCmax; details: mean of both orientations
T19 chain: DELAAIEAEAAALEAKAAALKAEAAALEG

APC6108-AA = molecular target: T20, APC6108-AA; test: two-hybrid library CCmax; details: mean of both orientations
T20 chain: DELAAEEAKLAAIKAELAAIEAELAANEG

APC7099-AA = molecular target: T21, APC7099-AA; test: two-hybrid library CCmax; details: mean of both orientations
T21 chain: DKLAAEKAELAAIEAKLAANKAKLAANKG

APC1015-AA = molecular target: T22, APC1015-AA; test: two-hybrid library CCmax
T22 chain: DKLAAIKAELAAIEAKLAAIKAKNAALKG

APC9096-AA = molecular target: T23, APC9096-AA; test: two-hybrid library CCmax; details: mean of both orientations
T23 chain: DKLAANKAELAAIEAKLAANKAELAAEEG

APC2405-AA = molecular target: T24, APC2405-AA; test: two-hybrid library CCmax; details: mean of both orientations
T24 chain: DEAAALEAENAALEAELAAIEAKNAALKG

P8A-bA = molecular target: T25, P8A-bA; test: two-hybrid library CCNG1
T25 chain: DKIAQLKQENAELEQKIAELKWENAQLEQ

P9A-bA = molecular target: T26, P9A-bA; test: two-hybrid library CCNG1
T26 chain: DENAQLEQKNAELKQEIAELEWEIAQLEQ

- interaction score (P9A-bH): -0.34
- interaction score (P8A-bH): 0.54
Binder: DKIQELKKENEELERKIWELKKENQELER [P8A-bH]

- interaction score (APC4011-AA): 1.66
- interaction score (APC4436-AA): -1.14
- interaction score (APC8191-AA): -1.8
- interaction score (APC4264-AA): -1.82
- interaction score (APC2237-AA): -0.0287
- interaction score (APC9319-AA): -1.82
- interaction score (APC1434-AA): -1.58
- interaction score (APC5383-AA): -1.69
- interaction score (APC8910-AA): -1.34
- interaction score (APC3645-AA): -1.79
- interaction score (APC232-AA): 0.0398
- interaction score (APC6108-AA): 0.792
- interaction score (APC7099-AA): -2.02
- interaction score (APC1015-AA): -0.544
- interaction score (APC9096-AA): -1.67
- interaction score (APC2405-AA): -1.26
Binder: DKLAAIKAELAAIEAKLAAIKAKNAALKG [APC1015-AA]

More lines, now with the values behind:

Binder: KIAALKAEIAALEYKNAALKAKNAALKG [O4]
- interaction score (O5): -2.68
- interaction score (O6): -2.42
- interaction score (O8): -2.63
- interaction score (O4): -2.65
- interaction score (O9): -2.71
- interaction score (O7): -2.75

Binder: DKIAQLKQENAELEQKIAELKWENAQLEQ [P8A-bA]
- interaction score (P8A-bA): -0.497
- interaction score (P9A-bA): -0.256
